T1: P(T46G,Y94F)-L(6)-Ss* PvuII/I-SceI fusion protein (artificial (Proteus vulgaris PvuII; …)
T1 chain: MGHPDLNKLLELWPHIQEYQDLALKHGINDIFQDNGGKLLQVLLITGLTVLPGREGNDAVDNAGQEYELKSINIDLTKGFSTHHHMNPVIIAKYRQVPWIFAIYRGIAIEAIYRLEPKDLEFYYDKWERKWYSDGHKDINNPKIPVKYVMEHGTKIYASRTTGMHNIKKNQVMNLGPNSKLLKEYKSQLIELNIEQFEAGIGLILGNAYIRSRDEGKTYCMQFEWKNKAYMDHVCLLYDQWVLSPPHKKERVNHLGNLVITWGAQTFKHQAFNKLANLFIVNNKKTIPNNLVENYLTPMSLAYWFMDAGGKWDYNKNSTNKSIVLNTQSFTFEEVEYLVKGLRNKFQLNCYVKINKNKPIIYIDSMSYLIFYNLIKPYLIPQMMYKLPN

B1: S, I-SceI site only (dsDNA)
DNA 1: TAGGGATAACAGGGTAAT
DNA 2: ATTACCCTGTTATCCCTA
B2: S6P6S tripartite site I-SceI-PvuII-I-SceI (dsDNA)
DNA 1: TAGGGATAACAGGGTAATGGTACTCAGCTGATTCATATTACCCTGTTATCCCTA
DNA 2: TAGGGATAACAGGGTAATATGAATCAGCTGAGTACCATTACCCTGTTATCCCTA

Biological target: T1, P(T46G,Y94F)-L(6)-Ss* PvuII/I-SceI …
Experiment: EMSA; 1-150 nM enzyme, 2 nM DNA, KG buffer without Mg, room temperature
Conditions: tags: C-terminal Strep-tag (vector pASK-IBA63b-plus), chain copies: 2 (inferred, PvuII homodimer)
Method: For the determination of binding constants of the fusion enzymes, EMSAs with radioactive labeled PCR-fragments were done. The shift fragments were created via PCR using [α³²P] dATP. One fragment contained the addressed site (S6P6S; A), just an I-SceI site (S; B) or just a PvuII site (P; C). 2 nM of the radiolabeled substrate were incubated with fusion enzyme at concentrations ranging from 1-150 nM in optimized KG Buffer without magnesium for 30 min at room temperature. After adding 1 μl 87% glycerol the samples were loaded onto a 6% polyacrylamid Tris-Acetate (pH 8.5) gel and run for 2 h at 10V/cm. The bands were visualized using the InstantImager system (Packard).

Binder	binding result (label: 32P (PCR fragment))	binding result (label: 32P (EMSA PCR fragment))
B1	no binding	
B2		binds

Source: patent US20140208457, “Nuclease Fusion Protein and Uses Thereof” (BASF PLANT SCIENCE COMPANY GMBH, published 2014)
